Eleven molecules from patent US20170145112A1 (Genentech, published 2017) can be followed below.

The target of test [1] is T1, Human complement Factor D, mature (human, UniProt P00746 27-253). As to the kind of experiment: cell-based or functional assay.
Test [2] addresses T1, Human complement Factor D, mature. Description: SPR, Fab captured by anti-huFab, human Factor D injected.
Description: (§1) Kinetics and binding constant KD for Factor D binding to immobilized hu20D12 versions was determined by surface plasmon resonance (SPR) measurements on a Biacore®T200 instrument. […] After subtraction of the sensorgram observed for injection of running buffer, data were analyzed according to a 1:1 model using BiaEval software v4.1 (GE Healthcare) to extract the kinetics and affinity constants.
Test [3] has the same target. Description: SPR, Biacore T200, IgG captured by anti-Fc, human factor D injected. For orientation: Surface plasmon resonance follows binding to a sensor surface in real time, without labels.
For test [4] the target is unchanged. Description: cell-based or functional assay. This is another data set of the same source.
Test [5] has the same target. As to the kind of experiment: cell-based or functional assay. The source holds these as a separate data set.
Target sequence in this assay (P00746 27-253): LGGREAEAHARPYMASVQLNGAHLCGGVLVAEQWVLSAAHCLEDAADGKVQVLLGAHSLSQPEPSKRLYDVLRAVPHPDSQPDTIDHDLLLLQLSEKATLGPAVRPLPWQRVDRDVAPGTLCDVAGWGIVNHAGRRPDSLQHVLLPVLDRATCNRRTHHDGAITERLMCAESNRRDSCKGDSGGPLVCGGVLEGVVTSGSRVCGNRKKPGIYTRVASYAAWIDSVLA
The target is the same in test [6]. As to the kind of experiment: cell-based or functional assay. The source holds these as a separate data set.
For test [7] the target is unchanged. Description: SPR, at the limit of detection.
Target sequence in this assay (P00746 27-253): as above
Description: as §1
For test [8] the target is unchanged. Description: SPR (Biacore T200): Fab captured with anti-huFab kit, human Factor D injected, 25 C, 1:1 model.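 Note: sensorgrams were corrected by subtracting a blank injection of running buffer before fitting kinetic and affinity constants.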
Description: as §1
The target in test [9] is T2, Cynomolgus monkey complement Factor D (cynomolgus monkey, UniProt P00746 26-253 (human entry)).
T2 construct: also called cyfD; cFD
T2 chain: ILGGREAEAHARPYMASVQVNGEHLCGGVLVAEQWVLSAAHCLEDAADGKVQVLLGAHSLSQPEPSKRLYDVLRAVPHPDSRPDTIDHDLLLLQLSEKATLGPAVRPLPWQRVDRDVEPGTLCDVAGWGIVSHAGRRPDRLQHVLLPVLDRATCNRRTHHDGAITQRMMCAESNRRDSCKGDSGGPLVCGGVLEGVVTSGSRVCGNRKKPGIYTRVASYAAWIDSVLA
Description: SPR (Biacore T200), Fab format; cynomolgus Factor D (column 'KD (pM) cFD (cyno)').

In test [10] the target is T1, Human complement Factor D, mature. As to the kind of experiment: cell-based or functional assay. The source holds these as a separate data set.
Target sequence in this assay (P00746 27-253): as the sequence (P00746 27-253) above
Test [11] shares this target. As to the kind of experiment: SPR (refers to FIG. 11); hu20D12.v2.0.
Description: as §1
Test [12] shares this target. Description: cell-based or functional assay. The source holds these as a separate data set.

In general, Kd refers to the concentration at which binding is half-saturated. By koff is commonly meant the rate constant with which the complex falls apart. In general, kon refers to the rate constant with which the complex forms.

B1: hu20D12.v1 Fab (Fab, V domains shown)
VH: EVQLVQSGAEVKKPGASVKVSCKASGYTFTSYYMYWVRQAPGQGLEWIGEINPTNGGTNFNEKFKSRATLTVDTSTSTAYLELSSLRSEDTAVYYCAREGGFAYWGQGTLVTVSS
VL: DIQMTQSPSSLSASVGDRVTITCKASQNVDTDVAWFQQKPGKAPKGLIYSASSRYSGVPSRFSGSGSGTDFTLTISSLQPEDFATYYCQQYNNYPLTFGQGTKVEIKR
notes: Fab expressed in E. coli
For B1, in [1], the “IC50 Hemolysis” value amounted to 2.8 nM. In test [2], the Kd came to 0.033 nM.

B2: hu20D12.v1 IgG (antibody, V domains shown)
VH: EVQLVQSGAEVKKPGASVKVSCKASGYTFTSYYMYWVRQAPGQGLEWIGEINPTNGGTNFNEKFKSRATLTVDTSTSTAYLELSSLRSEDTAVYYCAREGGFAYWGQGTLVTVSS
VL: DIQMTQSPSSLSASVGDRVTITCKASQNVDTDVAWFQQKPGKAPKGLIYSASSRYSGVPSRFSGSGSGTDFTLTISSLQPEDFATYYCQQYNNYPLTFGQGTKVEIK
notes: Expressed as full length IgG in CHO cells
In test [3], B2 came in with a dissociation constant (Kd) of 0.046 nM, an off-rate (koff) of 0.00067 s⁻¹ and a kon of 1.5e+07 M⁻¹ s⁻¹. The “Hemolysis IC50” value in [4] is 4.3 nM.

B3: hu20D12.v2.1.C+TP-Oct (Fab, V domains shown)
VH: EVQLVQSGAEVKKPGASVKVSCKASGYTFTSYYMYWVRQAPGQGLEWIGEINPTSGGTNFNEKFKSRATLTVDTSTSTAYLELSSLRSEDTAVYYCAREGGFAYWGQGTLVTVSS
VL: DIQMTQSPSSLSASVGDRVTITCKASQNVDTDVAWFQQKPGKAPKGLIRSASSRYSGVPSRFSGSGSGTDFTLTISSLQPEDFATYYCQQYNNYPLTFGQGTKVEIKR
modifications: C-terminal Cys (Cys-226, EU numbering) linked through maleimide to a 40K eight-armed PEG with tripentaerythritol (TP) core
With B3, the “IC50, TR-FRET assay of Factor D (50 pM) cleavage of factor B” value (shortened to “IC50, TR-FRET assay of Factor D”) in test [5] was determined as 31 pM.

B4: hu20D12.v2.3.C+TP-Oct (Fab, V domains shown)
VH: EVQLVQSGAEVKKPGASVKVSCKASGYTFTSYYMYWVRQAPGQGLEWIGEINPYSGDTNFNEKFKSRATLTVDTSTSTAYLELSSLRSEDTAVYYCAREGGFAYWGQGTLVTVSS
VL: DIQMTQSPSSLSASVGDRVTITCKASQNVDTDVAWFQQKPGKAPKGLIRSASSRYSGVPSRFSGSGSGTDFTLTISSLQPEDFATYYCQQYNNYPLTFGQGTKVEIKR
modifications: C-terminal Cys (Cys-226, EU numbering) linked through maleimide to a 40K eight-armed PEG with tripentaerythritol (TP) core
Turning to B4, in test [5], the “IC50, TR-FRET assay of Factor D” value stood at 13 pM.

B5: hu20D12.v2.15 Fab (Fab, V domains shown)
VH: EVQLVQSGAEVKKPGASVKVSCKASGYTFTSYYMYWVRQAPGQGLEWIGEINPYSGETNFNEKFKSRATLTVDTSTSTAYLELSSLRSEDTAVYYCAREGGFAYWGQGTLVTVSS
VL: DIQMTQSPSSLSASVGDRVTITCKASQNVDTDVAWFQQKPGKAPKGLIRSASSRYSGVPSRFSGSGSGTDFTLTISSLQPEDFATYYCQQYNNYPLTFGQGTKVEIKR
For the molecule B5, the “FRET IC50 (TR-FRET assay of Factor D-dependent factor B activation)” value in [6] is 0.024 nM. For the same molecule, the equilibrium dissociation constant (Kd) in test [7] was about 0.01 nM; in test [8], under 0.01 nM; in [9], 0.027 nM. The molecule further showed a koff in test [8] of 6e-05 s⁻¹. Further, in test [8], the kon amounted to 1.9e+07 M⁻¹ s⁻¹.

B6: hu20D12.v2.3 Fab (Fab, V domains shown)
VH: EVQLVQSGAEVKKPGASVKVSCKASGYTFTSYYMYWVRQAPGQGLEWIGEINPYSGDTNFNEKFKSRATLTVDTSTSTAYLELSSLRSEDTAVYYCAREGGFAYWGQGTLVTVSS
VL: DIQMTQSPSSLSASVGDRVTITCKASQNVDTDVAWFQQKPGKAPKGLIRSASSRYSGVPSRFSGSGSGTDFTLTISSLQPEDFATYYCQQYNNYPLTFGQGTKVEIKR
Regarding B6, the “AVG IC50 (pM), TR-FRET assay of Factor D-dependent factor B activation” value (“AVG IC50 (pM), TR-FRET assay” for short) in test [10] stood at 31.2 pM. The “IC50, TR-FRET assay of Factor D” value in test [5] was 31 pM. Also, in test [6], the “FRET IC50 (TR-FRET assay of Factor D-dependent factor B activation), value 1 of 3 in the cell” value was 0.025 nM; the “FRET IC50 (TR-FRET assay of Factor D-dependent factor B activation), value 2 of 3 in the cell” value came to 0.031 nM; the “FRET IC50 (TR-FRET assay of Factor D-dependent factor B activation), value 3 of 3 in the cell” value worked out at 0.031 nM. The Kd in [7] was about 0.01 nM. In test [8], the Kd was under 0.01 nM, the off-rate constant (koff) worked out at 2.9e-05 s⁻¹ and the on-rate constant (kon) is 1.2e+07 M⁻¹ s⁻¹. In test [9], this molecule registered a Kd of 0.024 nM.

B7: hu20D12.v2.14 Fab (Fab, V domains shown)
VH: EVQLVQSGAEVKKPGASVKVSCKASGYTFTSYYMYWVRQAPGQGLEWIGEINPTSGETNFNEKFKSRATLTVDTSTSTAYLELSSLRSEDTAVYYCAREGGFAYWGQGTLVTVSS
VL: DIQMTQSPSSLSASVGDRVTITCKASQNVDTDVAWFQQKPGKAPKGLIRSASSRYSGVPSRFSGSGSGTDFTLTISSLQPEDFATYYCQQYNNYPLTFGQGTKVEIKR
B7: the “FRET IC50 (TR-FRET assay of Factor D-dependent factor B activation)” value in test [6] is 0.025 nM. The Kd in [7] is about 0.01 nM. Moreover, in test [8], the Kd is under 0.01 nM, the koff is 8e-05 s⁻¹ and the kon is 1.5e+07 M⁻¹ s⁻¹. Moreover, the dissociation constant Kd in test [9] worked out at 0.05 nM.

B8: hu20D12.v2.0 Fab (Fab, V domains shown)
VH: EVQLVQSGAEVKKPGASVKVSCKASGYTFTSYYMYWVRQAPGQGLEWIGEINPTSGGTNFNEKFKSRATLTVDTSTSTAYLELSSLRSEDTAVYYCAREGGFAYWGQGTLVTVSS
VL: DIQMTQSPSSLSASVGDRVTITCKASQNVDTDVAWFQQKPGKAPKGLIYSASSRYSGVPSRFSGSGSGTDFTLTISSLQPEDFATYYCQQYNNYPLTFGQGTKVEIKR
notes: Fab expressed in E. coli; also called Hu20D12.v1.N54S; hu20D12.v1.N54S
As to B8, in test [10], the “AVG IC50 (pM), TR-FRET assay” value is 59.2 pM. Besides, the “IC50 Hemolysis” value in [1] stood at 4.7 nM. Further, in test [2], the affinity, expressed as Kd, was 0.04 nM. In test [11], this molecule came in with a Kd of 0.039 nM. In [12], the “IC50 in the TR-FRET assay, fold against lampalizumab” value is about 2 fold. In test [6], the “FRET IC50 (TR-FRET assay of Factor D-dependent factor B activation), value 1 of 2 in the cell” value turned out to be 0.051 nM and the “FRET IC50 (TR-FRET assay of Factor D-dependent factor B activation), value 2 of 2 in the cell” value came to 0.059 nM. In test [8], this molecule registered an off-rate (koff) of 0.00055 s⁻¹ and a kon of 1.4e+07 M⁻¹ s⁻¹. In test [9], this molecule came in with a Kd of 0.152 nM.

B9: hu20D12.v1.1 Fab (Fab, V domains shown)
VH: EVQLVQSGAEVKKPGASVKVSCKASGYTFTSYYMYWVRQAPGQGLEWIGEINPTQGGTNFNEKFKSRATLTVDTSTSTAYLELSSLRSEDTAVYYCAREGGFAYWGQGTLVTVSS
VL: DIQMTQSPSSLSASVGDRVTITCKASQNVDTDVAWFQQKPGKAPKGLIYSASSRYSGVPSRFSGSGSGTDFTLTISSLQPEDFATYYCQQYNNYPLTFGQGTKVEIKR
notes: Fab expressed in E. coli; also called Hu20D12.v1.N54Q
B9: the “IC50 Hemolysis” value in [1] turned out to be 6.7 nM. The same molecule showed a dissociation constant Kd in test [2] of 0.045 nM.

B10: murine 20D12 (mu20D12) IgG (antibody, V domains shown)
VH: QVQLQQSGAELVKPGASVKLSCKASGYTFTSYYMYWVKERPGQGLEWIGEINPTNGGTNFNEKFKSKATLTVDTSSNTAYMQLSSLTSEDSAVYYCAREGGFAYWGQGTLVTVSA
VL: DIVMTQSQKFMSTSVGDRVSVTCKASQNVDTDVAWFQQKPGQSPRGLIYSASSRYSGVPDRFTGSGSGTDFTLTISNVQSEDLAEYFCQQYNNYPLTFGSGTKVEIK
notes: IgG format, mouse antibody
In test [3], B10 yielded a Kd of 0.066 nM, a dissociation rate constant (koff) of 0.00039 s⁻¹ and an on-rate (kon) of 5.9e+06 M⁻¹ s⁻¹. Further, the “Hemolysis IC50” value in [4] was 4 nM.

B11: AFD.v14 Fab (Fab, V domains shown)
VH: EVQLVQSGPELKKPGASVKVSCKASGYTFTNYGMNWVRQAPGQGLEWMGWINTYTGETTYAEDFKGRFVFSLDTSVSTAYLQISSLKAEDTAVYYCEREGGVSNWGQGTLVTVSS
VL: DIQVTQSPSSLSASVGDRVTITCITSTSIESDMNWYQQKPGKVPKLLISGGNTLRPGVPSRFSGSGSGTDFTLTISSLQPEDVATYYCLQSDSLPYTFGQGTKVEIKR
notes: Variant of lampalizumab; also called SIESD.N103S
On to B11, for which the “AVG IC50 (pM), TR-FRET assay” value in test [10] came to 34 pM. The “IC50, TR-FRET assay of Factor D” value in test [5] worked out at 26 pM. Moreover, in test [6], the “FRET IC50 (TR-FRET assay of Factor D-dependent factor B activation), value 1 of 3 in the cell” value came to 0.025 nM; the “FRET IC50 (TR-FRET assay of Factor D-dependent factor B activation), value 2 of 3 in the cell” value was 0.034 nM; the “FRET IC50 (TR-FRET assay of Factor D-dependent factor B activation), value 3 of 3 in the cell” value was determined as 0.026 nM. Further, in test [8], the dissociation constant (Kd) stood at 0.0233 nM, the off-rate constant (koff) amounted to 0.00021 s⁻¹ and the kon is 9e+06 M⁻¹ s⁻¹. Also, binding in test [9] was put at a Kd of 0.056 nM.
